Source: publication PMC7160673, “A Degenerate Peptide Library Approach to Reveal Sequence Determinants of Methyllysine-Driven Protein Interactions” (Frontiers in Cell and Developmental Biology, 2020)
Like-named read-outs stand apart in the source and are kept apart here.

How the values were obtained:
FAM-WAY(Kme3)TGK peptide = assay: fluorescence polarisation; protein serially diluted with 10 nM FAM peptide; 25 mM HEPES pH 7.5, 100 mM NaCl, 0.05% NP-40; anisotropy fitted by specific binding with Hill slope
[1] = molecular target: FAM-KAK(Kme3)TGK peptide (human); assay: as above
[2] = molecular target: FAM-KAK(Kme3)TGK peptide (human); assay: as above; remark: listed apart in the source
[3] = molecular target: FAM-TAR(Kme3)STG peptide (H3K9me3); assay: as above
[4] = molecular target: biotinylated H3(1-20)K9me2 peptide; assay: Kme-OPL pulldown fluorescence assay (GST-tagged reader domain); conditions: parent: est. 1300; read off a plot

Sequence of M Phase Phosphoprotein 8 chromodomain (Q99549 55-116): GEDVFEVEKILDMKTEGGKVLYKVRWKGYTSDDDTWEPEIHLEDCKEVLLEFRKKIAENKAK

Row | fold tighter than the H3K9me3 peptide (FAM-WAY(Kme3)TGK peptide) [fold] | Kd [1] [nM] | Kd [2] [nM] | Kd [3] [nM] | fold tighter than the H3K9me3 peptide [1] [fold] | response (RFU (GST-subtracted fluorescence)) [4] | Substance
1 | 100 | 3600 | – | – | – | – | Chromodomain Y-like protein 2 chromodomain (domain or fragment)
2 | – | 840 | 660 | 5400 | 10 | – | M Phase Phosphoprotein 8 chromodomain (from UniProt Q99549 55-116) (domain or fragment)
3 | – | – | – | – | – | 150 | M Phase Phosphoprotein 8 chromodomain (from UniProt Q99549) W80A
